# T1: Human Siglec-15, His Tag (human Siglec-15 full-length extracellular domain linked with His tag) (human, UniProt Q6ZMC9 20-263)
# T1 construct: Bought from ACROBiosystems; also called Siglec-15 protein; SG5-H52H3
# T1 sequence: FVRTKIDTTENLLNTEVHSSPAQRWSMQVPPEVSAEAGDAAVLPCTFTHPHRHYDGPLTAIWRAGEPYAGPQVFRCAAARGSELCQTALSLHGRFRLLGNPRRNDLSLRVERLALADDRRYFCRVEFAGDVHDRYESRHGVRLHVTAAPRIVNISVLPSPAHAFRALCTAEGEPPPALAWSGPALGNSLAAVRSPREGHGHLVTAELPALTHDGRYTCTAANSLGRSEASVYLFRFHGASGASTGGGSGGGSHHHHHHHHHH
# T2: Human Siglec-15 overexpressed on HEK293T cells (HEK293T-hu-S15) (human, UniProt Q6ZMC9 20-328)
# T2 construct: whole, on cells; also called HEK293T-hu-S15 cell line
# T2 sequence (looked up): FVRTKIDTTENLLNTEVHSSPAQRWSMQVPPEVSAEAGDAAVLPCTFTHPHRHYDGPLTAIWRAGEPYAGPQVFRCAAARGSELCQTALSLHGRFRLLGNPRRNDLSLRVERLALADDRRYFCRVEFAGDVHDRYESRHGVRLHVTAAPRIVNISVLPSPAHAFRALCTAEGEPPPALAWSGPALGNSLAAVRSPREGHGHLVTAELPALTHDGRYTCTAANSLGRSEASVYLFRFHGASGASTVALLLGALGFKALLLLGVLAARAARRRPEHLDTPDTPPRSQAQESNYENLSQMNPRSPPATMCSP
# T3: Cynomolgus Monkey Siglec-15 full-length extracellular domain linked with His tag (Cynomolgus Monkey)
# T3 construct: Bought from ACROBiosystems; also called SG5-052H6
# T3 chain: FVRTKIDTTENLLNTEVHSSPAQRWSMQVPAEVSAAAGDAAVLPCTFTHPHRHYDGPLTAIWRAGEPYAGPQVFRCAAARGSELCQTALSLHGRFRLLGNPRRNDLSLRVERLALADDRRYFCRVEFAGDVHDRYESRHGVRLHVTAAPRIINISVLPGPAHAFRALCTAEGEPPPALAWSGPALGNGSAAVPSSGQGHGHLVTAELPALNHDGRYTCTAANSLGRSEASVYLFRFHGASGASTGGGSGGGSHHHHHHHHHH
# Legend:
# [1] = biological target: T1, Human Siglec-15, His Tag (human …); assay: SPR Biacore, antibody captured by anti-human Fc on CM5, Siglec-15 protein as analyte
# [2] = biological target: T1, Human Siglec-15, His Tag (human …); assay: Octet BLI epitope binning, Siglec-15 His on HIS1K sensor; competitor 124B11F6
# Method: (§1) Epitope binning assays were performed using the Octet RED96e (ForteBio) System for the antibodies tested. Human Siglec-15, His Tag (Cat. No. SG5-H52H3) (5 μg/mL) was captured by the HIS1K biosensor and bound to primary antibody (100 nM) for 180 s. Then, the Human Siglec-15, His Tag (antigen)-primary antibody was bound to secondary antibody (100 nM) on the biosensors for 90 s. Data analysis was performed using Octet RED96e (ForteBio) analysis software.
# [3] = biological target: T2, Human Siglec-15 overexpressed on …; assay: flow cytometry on HEK293T-hu-S15 cells, detection with anti-human IgG (Fc specific)-FITC, average fluorescence intensity
# Method: HEK293T cell line overexpressing Siglec-15 (HEK293T-hu-S15) was purchased from KYinno Biotechnology Co., Ltd (Beijing, China) under Catalog #KC-1314. Purified anti-Siglec-15 chimeric antibodies were diluted at a gradient of 100 nM and incubated with HEK293T-hu-S15 cells at 4° C. for 30 min. Flow cytometry was performed after addition of anti-human IgG (Fc specific)-FITC (cat. #F9512) and incubation for 30 min.
# [4] = biological target: T1, Human Siglec-15, His Tag (human …); assay: Octet BLI epitope binning, Siglec-15 His on HIS1K sensor; competitor 75E1F2
# Method: as §1
# [5] = biological target: T1, Human Siglec-15, His Tag (human …); assay: Octet BLI epitope binning, Siglec-15 His on HIS1K sensor; competitor 255C12B10
# Method: as §1
# [6] = biological target: T1, Human Siglec-15, His Tag (human …); assay: Octet BLI epitope binning, Siglec-15 His on HIS1K sensor; competitor 174C11C9
# Method: as §1
# [7] = biological target: T1, Human Siglec-15, His Tag (human …); assay: ELISA, coated antigen
# Method: (§2) The variable regions from the antibodies produced by the hybridomas were combined with human IgG1 (N297A) constant regions to generate chimeric antibodies, named as 21F6C6, 75E1F2, 124B11F6, 174C11C9, and 255C12B10, respectively. Binding activity assays were performed on the chimeric antibodies using Siglec-15 proteins from different species, in which human, mouse and Cynomolgus Monkey Siglec-15 proteins were purchased from ACROBiosystems (Beijing, China). Antigen was coated at 0.5 μg/ml, and antibodies were diluted starting from 1 μg/ml and incubated with antigen. Horseradish peroxidase-labeled Anti-Human IgG antibody was used as the secondary antibody and OD₄₅₀ values were read after adding the substrate.
# [8] = biological target: T3, Cynomolgus Monkey Siglec-15 full-length …; assay: ELISA, coated antigen
# Method: as §2
# [9] = biological target: T1, Human Siglec-15, His Tag (human …); assay: SPR Biacore 8K, antibody captured by anti-human Fc, Siglec-15 His as analyte
# Method: Affinity analysis was performed using Biacore8K, and a CM5 chip immobilized with anti-human Fc antibody was used to capture the antibodies tested. The stock solutions of the antibodies to be tested were diluted to 5 μg/mL, and injected sequentially into the experimental channels at a flow rate of 10 μL/min at about 500 RU. The analyte was Human Siglec-15, His Tag (Cat. #SG5-H52H3), the diluted human Siglec-15 protein was injected sequentially into the experimental channels and the control channel at a flow rate of 30 μL/min and allowing for a binding time of 150 s and a dissociation time of 700 s. The KD value of each antibody was calculated using Biacore 8K analysis software.
Kd [1] [nM],koff [1] [s⁻¹],kon [1] [M⁻¹ s⁻¹],Binder,further results
0.325,0.000447,1.37e+06,"174C11C9-hH2L2 (antibody, IgG1, V domains shown, Humanized; hIgG1, Kappa) VH: QVQLVQSGAEVKKPGASVKVSCKASGYIFTDYYMNWVRQAPGQGLEWIGVFNPYSGGISYNQKFKGRVTLTVDTSTSTAYMELSSLRSEDTAVYYCARDYYYLSSHGFYALDYWGQGTTVTVSS VL: DIQLTQSPSSLSASVGDRVTITCRASESVDSYGNSFIHWYQQKPGKAPKLLMYRASNLESGIPSRFSGSGSGTDFTLTISSLQPEDFATYYCQQSNEDPLTFGQGTKLEIK",–
0.614,0.000482,785000,"174C11C9-hH3L3 (antibody, IgG1, V domains shown, Humanized; hIgG1, Kappa) VH: QVQLVQSGAEVKKPGASVKVSCKASGYIFTDYYMNWVRQAPGQGLEWIGVFNPYSGGISYAQKFKGRVTLTVDTSTSTAYMELSSLRSEDTAVYYCARDYYYLSSHGFYALDYWGQGTTVTVSS VL: DIQLTQSPSSLSASVGDRVTITCRASESVDSYGNSFIHWYQQKPGKAPKLLMYRASNLESGVPSRFSGSGSGTDFTLTISSLQPEDFATYYCQQSNEDPLTFGQGTKLEIK",–
0.0724,0.000353,4.87e+06,"21F6C6-hH2L3 (antibody, IgG1, V domains shown, Humanized; hIgG1, Kappa) VH: EVQLVESGGGLVKPGGSLRLSCAASGFTFSSYAMSWVRQAPGKGLEWVATISSGGSLIYYADSVTGRFTISRDNAKNTLYLQMNSLRAEDTAVYYCVRHGYYYGDSTLYYAMDYWGQGTTVTVSS VL: DIQLTQSPSSLSASVGDRVTITCRASQSVDYDGDSYMNWYQQKPGKAPKLLIYAASNLESGVPSRFSGSGSGTDFTLTISSLQPEDFATYYCQQSNEAPLTFGQGTKLEIK",–
0.0683,0.000314,4.59e+06,"21F6C6-hH2L2 (antibody, IgG1, V domains shown, Humanized; hIgG1, Kappa) VH: EVQLVESGGGLVKPGGSLRLSCAASGFTFSSYAMSWVRQAPGKGLEWVATISSGGSLIYYADSVTGRFTISRDNAKNTLYLQMNSLRAEDTAVYYCVRHGYYYGDSTLYYAMDYWGQGTTVTVSS VL: DIQLTQSPSSLSASVGDRATITCRASQSVDYDGDSYMNWYQQKPGKAPKLLIYAASNLESGVPSRFSGSGSGTDFTLTISSVQPEDFATYYCQQSNEAPLTFGQGTKLEIK",–
0.114,0.000184,1.61e+06,"21F6C6-hH2L4V (antibody, IgG1, V domains shown, Humanized; hIgG1, Kappa) VH: EVQLVESGGGLVKPGGSLRLSCAASGFTFSSYAMSWVRQAPGKGLEWVATISSGGSLIYYADSVTGRFTISRDNAKNTLYLQMNSLRAEDTAVYYCVRHGYYYGDSTLYYAMDYWGQGTTVTVSS VL: DIQMTQSPSSLSASVGDRVTITCRASQSVDYEGDSYMNWYQQKPGKAPKLLIYAASNLQSGVPSRFSGSGSGTDFTLTISSLQPEDFATYYCQQSNEAPLTFGQGTKLEIK",–
0.0856,0.000414,4.84e+06,"21F6C6-hH2L4 (antibody, IgG1, V domains shown, Humanized; hIgG1, Kappa) VH: EVQLVESGGGLVKPGGSLRLSCAASGFTFSSYAMSWVRQAPGKGLEWVATISSGGSLIYYADSVTGRFTISRDNAKNTLYLQMNSLRAEDTAVYYCVRHGYYYGDSTLYYAMDYWGQGTTVTVSS VL: DIQMTQSPSSLSASVGDRVTITCRASQSVDYDGDSYMNWYQQKPGKAPKLLIYAASNLQSGVPSRFSGSGSGTDFTLTISSLQPEDFATYYCQQSNEAPLTFGQGTKLEIK",–
0.0806,0.000341,4.23e+06,"21F6C6-hH1L1 (antibody, IgG1, V domains shown, Humanized; hIgG1 heavy chain constant region, Kappa light chain constant region) VH: EVQLVESGGGLVKPGGSLRLSCAASGFTFSSYAMSWVRQAPGKGLEWVATISSGGSLIYYPDSVTGRFTISRDNAKSTLYLQMNSLRAEDTAVYYCVRHGYYYGDSTLYYAMDYWGQGTTVTVSS VL: DIQLTQSPSSLSASVGDRATITCRASQSVDYDGDSYMNWYQQKPGKAPKLLIYAASNLESGIPARFSGSGSGTDFTLTISSVQPEDFATYYCQQSNEAPLTFGQGTKLEIK",–
0.0684,0.000375,5.49e+06,"21F6C6 chimeric antibody (antibody, human IgG1, V domains shown, also called 21F6C6-mHL) VH: EVMLVESGGGLVKPGGSLKLSCAASGFTFSSYAMSWVRQSPEKRLEWVATISSGGSLIYYPDSVTGRFTISRDNAKSTLYLQMSSLRSEDTAMYYCVRHGYYYGDSTLYYAMDYWGPGTSVTVSS VL: DIVLTQSPASLAVSLGQRATISCKASQSVDYDGDSYMNWYQQKPGQPPKLLIYAASNLESGIPARFSGSGSGTDFTLNIHPVEEEDAATYYCQQSNEAPLTFGAGTKLELK",cross-competition score [2]: 101%; EC50 [3]: 1.19 nM; cross-competition score [4]: 4.92%; cross-competition score [5]: 56.8%; cross-competition score [6]: 4.98%; EC50 [7]: 4.81 ng/mL; EC50 [8]: 6.61 ng/mL; Kd [9]: 0.0473 nM; koff [9]: 0.000187 s⁻¹; kon [9]: 3.95e+06 M⁻¹ s⁻¹
0.109,0.000127,1.17e+06,"124B11F6-hH1L1 (antibody, IgG1, V domains shown, Humanized; hIgG1 heavy chain constant region, Lambda-C2 light chain constant region) VH: QVQLVQSGAEVKKPGASVKVSCKASVFNIKDYYMHWVRQAPGQGLEWIGRIDPEDDKTKYAPKFQGRATITADTSTNTAYLELSSLRSEDTAVYYCVRGWLGYIMDFWGQGTTVTVSS VL: QLVLTQSPSASFSLGASAKLTCTLSSQHSTYTIDWYQQQPEKGPRYVMELKEDGSHSTGDGIPDRFSGSSSGAERYLTISSIQSEDEADYICGVGATIKEQFVYVFGGGTKVTVL",–
0.202,0.000224,1.11e+06,"124B11F6-hH2L2 (antibody, IgG1, V domains shown, Humanized; hIgG1, Lambda) VH: QVQLVQSGAEVKKPGASVKVSCKASVFNIKDYYMHWVRQAPGQGLEWIGRIDPEDDKTKYAPKFQGRVTITADTSTSTAYLELSSLRSEDTAVYYCVRGWLGYIMDFWGQGTTVTVSS VL: QLVLTQSPSASASLGASVKLTCTLSSQHSTYTIDWYQQQPEKGPRYVMELKEDGSHSTGDGIPDRFSGSSSGAERYLTISSLQSEDEADYICGVGATIKEQFVYVFGGGTKVTVL",–

# Source: patent US20240092897A1 (SHANGHAI JMT BIO TECHNOLOGY, published 2024)
